Experimental data taken from the supplement of paper PMC10567573.

B1: FOXJ1 (parent)
chain: SAIYKWITDNFCYFRHADPTWQNS

Variants of: B1
Experiment: protein stability index of a GFP-peptide fusion (GPS, HEK-293T) (PSI 1-6); higher = more stable
Details: c terminus: a fixed tail appended
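Also: lentivirally expressed fusions sorted by FACS into six bins by GFP to DsRed ratio, PSI derived from sequencing read proportions per bin multiplied by bin number.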

Variant | protein stability index
SAVYKWITDNFCYFRHADPTWQNS [I3V] | 3.81
SAQYKWITDNFCYFRHADPTWQNS [I3Q] | 2.1
SALYKWITDNFCYFRHADPTWQNS [I3L] | 2.36
SASYKWITDNFCYFRHADPTWQNS [I3S] | 1.21
SANYKWITDNFCYFRHADPTWQNS [I3N] | 1.6
SAFYKWITDNFCYFRHADPTWQNS [I3F] | 1.87
SAYYKWITDNFCYFRHADPTWQNS [I3Y] | 3.11
SAAYKWITDNFCYFRHADPTWQNS [I3A] | 2.42
SAHYKWITDNFCYFRHADPTWQNS [I3H] | 1.98
SARYKWITDNFCYFRHADPTWQNS [I3R] | 1.78
SACYKWITDNFCYFRHADPTWQNS [I3C] | 4.05
SAMYKWITDNFCYFRHADPTWQNS [I3M] | 3.21
SAEYKWITDNFCYFRHADPTWQNS [I3E] | 1.67
SAIYKWITDNRCYFRHADPTWQNS [F11R] | 3.03
SAIYKWITDNTCYFRHADPTWQNS [F11T] | 2.83
SAIYKWITDNHCYFRHADPTWQNS [F11H] | 2.71
SAIYKWITDNQCYFRHADPTWQNS [F11Q] | 2.21
SAIYKWITDNCCYFRHADPTWQNS [F11C] | 2.68
SAIYKWITDNKCYFRHADPTWQNS [F11K] | 2.08
SAIYKWITDNECYFRHADPTWQNS [F11E] | 1.89
SAIYKWITDNDCYFRHADPTWQNS [F11D] | 1.49
SAIYKWITDNGCYFRHADPTWQNS [F11G] | 1.96
SAIYKWITDNMCYFRHADPTWQNS [F11M] | 3.18
SAIYKWITDNPCYFRHADPTWQNS [F11P] | 1.79

Variant | protein stability index
SAIYKWITDNVCYFRHADPTWQNS [F11V] | 3.51
SAIYKWITDNSCYFRHADPTWQNS [F11S] | 3.59
SAIYKWITDNYCYFRHADPTWQNS [F11Y] | 3.4
SAIYKWITDNWCYFRHADPTWQNS [F11W] | 2.53
SAIYKWITDNNCYFRHADPTWQNS [F11N] | 2.05
SAIYKWITDNLCYFRHADPTWQNS [F11L] | 3.24
SAICKWITDNFCYFRHADPTWQNS [Y4C] | 2.04
SAIHKWITDNFCYFRHADPTWQNS [Y4H] | 2.58
SAITKWITDNFCYFRHADPTWQNS [Y4T] | 1.52
SAIPKWITDNFCYFRHADPTWQNS [Y4P] | 2.27
SAIAKWITDNFCYFRHADPTWQNS [Y4A] | 1.47
SAINKWITDNFCYFRHADPTWQNS [Y4N] | 2.71
SAIWKWITDNFCYFRHADPTWQNS [Y4W] | 2.97
SAIFKWITDNFCYFRHADPTWQNS [Y4F] | 2.59
SAIEKWITDNFCYFRHADPTWQNS [Y4E] | 2.99
SAIQKWITDNFCYFRHADPTWQNS [Y4Q] | 2.97
SAILKWITDNFCYFRHADPTWQNS [Y4L] | 2.95
SAIDKWITDNFCYFRHADPTWQNS [Y4D] | 2.24
SAIIKWITDNFCYFRHADPTWQNS [Y4I] | 2.52
SAISKWITDNFCYFRHADPTWQNS [Y4S] | 2.68
SAIYKWITTNFCYFRHADPTWQNS [D9T] | 3.43
SAIYKWITINFCYFRHADPTWQNS [D9I] | 4
SAIYKWITQNFCYFRHADPTWQNS [D9Q] | 2.67
SAIYKWITLNFCYFRHADPTWQNS [D9L] | 2.65

Variant | protein stability index
SAIYKWITHNFCYFRHADPTWQNS [D9H] | 4.47
SAIYKWITMNFCYFRHADPTWQNS [D9M] | 3.64
SAIYKWITYNFCYFRHADPTWQNS [D9Y] | 2.56
SAIYKWITSNFCYFRHADPTWQNS [D9S] | 3.04
SAIYKWITENFCYFRHADPTWQNS [D9E] | 3.89
SAIYKWITFNFCYFRHADPTWQNS [D9F] | 3.55
SAIYKWITRNFCYFRHADPTWQNS [D9R] | 3.41
SAIYKWITCNFCYFRHADPTWQNS [D9C] | 4.21
SAIYKWITPNFCYFRHADPTWQNS [D9P] | 2.83
SAIYKWITGNFCYFRHADPTWQNS [D9G] | 3.51
SAIYKWITANFCYFRHADPTWQNS [D9A] | 2.74
SAIYKWITDWFCYFRHADPTWQNS [N10W] | 2.06
SAIYKWITDTFCYFRHADPTWQNS [N10T] | 2.05
SAIYKWITDRFCYFRHADPTWQNS [N10R] | 2.2
SAIYKWITDLFCYFRHADPTWQNS [N10L] | 3.56
SAIYKWITDFFCYFRHADPTWQNS [N10F] | 1.81
SAIYKWITDIFCYFRHADPTWQNS [N10I] | 2.79
SAIYKWITDYFCYFRHADPTWQNS [N10Y] | 3.33
SAIYKWITDMFCYFRHADPTWQNS [N10M] | 2.89
SAIYKWITDKFCYFRHADPTWQNS [N10K] | 2.34
SAIYKWITDQFCYFRHADPTWQNS [N10Q] | 2.11
SAIYKWITDGFCYFRHADPTWQNS [N10G] | 1.42
SAIYKWITDEFCYFRHADPTWQNS [N10E] | 2.62
SAIYKWITDCFCYFRHADPTWQNS [N10C] | 2.08

Variant | protein stability index
SAIYKWITDPFCYFRHADPTWQNS [N10P] | 2.13
SAIYKWITDDFCYFRHADPTWQNS [N10D] | 1.58
SAIYKWITDVFCYFRHADPTWQNS [N10V] | 1.74
SAIYKWITDHFCYFRHADPTWQNS [N10H] | 2.3
SAIYKWITDNFCYARHADPTWQNS [F14A] | 2.32
SAIYKWITDNFCQFRHADPTWQNS [Y13Q] | 1.57
SAIYKWITDNFCWFRHADPTWQNS [Y13W] | 3.59
SAIYKWITDNFCSFRHADPTWQNS [Y13S] | 2.2
SAIYKWITDNFCLFRHADPTWQNS [Y13L] | 1.87
SAIYKWITDNFCFFRHADPTWQNS [Y13F] | 2.47
SAIYKWITDNFCVFRHADPTWQNS [Y13V] | 3
SAIYKWITDNFCEFRHADPTWQNS [Y13E] | 1.03
SAIYKWITDNFCGFRHADPTWQNS [Y13G] | 3.62
SAIYKWITDNFCAFRHADPTWQNS [Y13A] | 3.53
SAIYKWITDNFCTFRHADPTWQNS [Y13T] | 2.96
SAIYKWITDNFCCFRHADPTWQNS [Y13C] | 2.83
SAIYKWITDNFCDFRHADPTWQNS [Y13D] | 1.8
SAIYKWITDNFCMFRHADPTWQNS [Y13M] | 2.87
SAIYKWITDNFCPFRHADPTWQNS [Y13P] | 2.18
SAIYKWITDNFCRFRHADPTWQNS [Y13R] | 1.8
SAIYKWITDNFCHFRHADPTWQNS [Y13H] | 3.23
SAIYKWITDNFCKFRHADPTWQNS [Y13K] | 1.86
